Here are results for 1 protein from PMC9116394, “Triple-negative and triple-positive breast cancer cells reciprocally control their growth and migration via the S100A4 pathway” (Cell Adhesion & Migration, 2022).

This data set concerns the molecule itself. Briefly: western blot of cell extracts; extracts of TNBC (MDA-MB-231) cells incubated in TPBC-medium, TNBC-medium or S-medium; detected with a polyclonal antibody to S100A4; gel conditions not stated.

B1: S100A4 protein (natural protein)
chain: not shown
notes: S100A4 (Mts1), endogenous in the human triple-negative breast carcinoma cell line MDA-MB-231; Monomeric, dimeric and tetrameric forms were told apart as bands on a western blot of cell extracts; also called Mts1; source: endogenous, MDA-MB-231 (TNBC) cell extract
For orientation: stoichiometry N means the number of molecules, sites or subunits per partner or assembly. For the protein B1, the “stoichiometry N” value was determined as 4.
